From US20240261333A1 (published 2024)

Experiments:
Assay in all cases: co-IP with anti-FLAG, C-FLAG B3GNT2, mass spectrometry
PKM = target: T1, PKM (human, UniProt P14618 2-531, limits assumed)
T1 construct: also called NP_001193725.1 (+3)
Description: (§1) Cells were plated in 10-cm cell culture dishes and grown to 60-80% confluency. For each condition, two biological replicates were harvested for co-IP. Cells were washed with PBS and 4 mL of lysis buffer (20 mM HEPES, 1% Triton X-100, 150 mM NaCl, 1 mM EDTA, and 10% glycerol) containing protease inhibitor cocktail was added. Cells were scraped and lysate was incubated at 4° C. under rotary agitation for 1 h. Lysate was centrifuged at 14,000×g for 10 min at 4° C. Supernatant was transferred to a new tube and an aliquot was taken as the input. […] For Western blots, 10 μg/mL Chicken Anti-FLAG (Aves labs ET-DY100) and IgY control (R&D Systems AB-101-C) antibodies were biotinylated (Thermo Fisher Scientific 90407) and added to the respective conditions. Lysates with antibodies were incubated at 4° C. under rotary agitation overnight. For each mL of lysate, 50 μL of Pierce Protein A/G Magnetic Beads (Mass spectrometry; Thermo Fisher Scientific 88803) or Pierce Streptavidin Magnetic Beads (Western blot; Thermo Fisher Scientific 88817) was washed twice with lysis buffer. Lysates with antibodies were added to the beads and incubated at 4° C. under rotary agitation for 4 h. Beads were washed with lysis buffer 3 times and resuspended in lysis buffer for storage.
(§2) Magnetic beads were resuspended in 100 mM Tris pH 7.8, reduced, alkylated and digested with trypsin at 37° ° C. overnight. This solution was subjected to solid phase extraction to concentrate the peptides and remove unwanted reagents followed by injection onto a Shimadzu HPLC with fraction collector. Eight fractions were collected and after concentration were injected on a Waters NanoAcquity HPLC equipped with a self-packed Aeris 3 μm C18 analytical column 0.075 mm by 20 cm, (Phenomenex). Peptides were eluted using standard reverse-phase gradients. The effluent from the column was analyzed using a Thermo Orbitrap Elite mass spectrometer (nanospray configuration) operated in a data dependent manner for 54 minutes. The resulting fragmentation spectra were correlated against the known database using Proteome Discover 1.4 (Thermo Fisher Scientific).

FLG = target: T2, FLG (human, UniProt P20930 1-4061, limits assumed)
T2 construct: also called NP_002007.1
Description: as §1, §2

CPSF7 = target: T3, CPSF7 (human, UniProt Q8N684 1-471)
T3 construct: also called NP_001129512.1 (+5)
T3 sequence (looked up): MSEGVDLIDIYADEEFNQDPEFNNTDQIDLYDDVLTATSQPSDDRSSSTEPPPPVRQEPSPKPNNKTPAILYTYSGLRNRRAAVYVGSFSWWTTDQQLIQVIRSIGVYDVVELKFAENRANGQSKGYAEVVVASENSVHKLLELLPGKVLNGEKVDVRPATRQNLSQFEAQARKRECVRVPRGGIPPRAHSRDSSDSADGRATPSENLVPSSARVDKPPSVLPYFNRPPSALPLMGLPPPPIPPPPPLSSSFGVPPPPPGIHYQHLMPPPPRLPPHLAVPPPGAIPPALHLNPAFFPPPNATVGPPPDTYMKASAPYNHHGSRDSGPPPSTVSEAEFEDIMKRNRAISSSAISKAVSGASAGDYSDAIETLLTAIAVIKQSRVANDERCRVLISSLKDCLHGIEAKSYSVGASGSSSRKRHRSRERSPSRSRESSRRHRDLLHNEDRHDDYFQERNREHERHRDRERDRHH
Description: as §1, §2

MMS19 = target: T4, MMS19 (human, UniProt Q96T76-9 2-987, limits assumed)
T4 construct: also called NP_001276332.1 (+9)
T4 sequence (looked up): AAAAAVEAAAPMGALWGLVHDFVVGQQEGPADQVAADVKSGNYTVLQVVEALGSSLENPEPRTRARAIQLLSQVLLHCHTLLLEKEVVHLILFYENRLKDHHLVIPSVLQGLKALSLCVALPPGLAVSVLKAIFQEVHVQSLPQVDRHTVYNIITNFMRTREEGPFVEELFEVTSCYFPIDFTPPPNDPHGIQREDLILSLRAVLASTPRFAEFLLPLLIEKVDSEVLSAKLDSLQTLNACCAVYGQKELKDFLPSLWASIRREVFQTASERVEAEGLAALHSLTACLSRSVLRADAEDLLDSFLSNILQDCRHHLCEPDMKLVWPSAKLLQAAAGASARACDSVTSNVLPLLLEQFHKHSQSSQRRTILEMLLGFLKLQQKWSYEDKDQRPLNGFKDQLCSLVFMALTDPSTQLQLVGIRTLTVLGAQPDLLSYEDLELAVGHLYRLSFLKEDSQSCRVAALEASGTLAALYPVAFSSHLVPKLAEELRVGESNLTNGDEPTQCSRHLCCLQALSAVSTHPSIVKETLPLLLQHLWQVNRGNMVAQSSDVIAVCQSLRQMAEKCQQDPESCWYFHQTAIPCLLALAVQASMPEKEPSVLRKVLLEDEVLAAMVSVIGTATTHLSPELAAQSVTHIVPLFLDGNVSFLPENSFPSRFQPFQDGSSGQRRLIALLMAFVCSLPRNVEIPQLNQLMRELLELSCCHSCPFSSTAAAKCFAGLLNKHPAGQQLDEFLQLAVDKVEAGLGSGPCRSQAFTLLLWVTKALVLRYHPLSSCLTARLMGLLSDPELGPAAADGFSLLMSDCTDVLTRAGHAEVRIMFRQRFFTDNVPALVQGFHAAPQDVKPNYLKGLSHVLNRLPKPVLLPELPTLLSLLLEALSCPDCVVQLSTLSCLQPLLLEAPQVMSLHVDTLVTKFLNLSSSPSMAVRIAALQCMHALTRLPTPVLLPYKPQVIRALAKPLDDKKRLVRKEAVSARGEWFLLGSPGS
Description: as §1, §2

CLTC = target: T5, CLTC (human, UniProt Q00610 2-1675, limits assumed)
T5 construct: also called NP_001275582.1 (+2)
Description: as §1, §2

T2 sequence (P20930 whole entry): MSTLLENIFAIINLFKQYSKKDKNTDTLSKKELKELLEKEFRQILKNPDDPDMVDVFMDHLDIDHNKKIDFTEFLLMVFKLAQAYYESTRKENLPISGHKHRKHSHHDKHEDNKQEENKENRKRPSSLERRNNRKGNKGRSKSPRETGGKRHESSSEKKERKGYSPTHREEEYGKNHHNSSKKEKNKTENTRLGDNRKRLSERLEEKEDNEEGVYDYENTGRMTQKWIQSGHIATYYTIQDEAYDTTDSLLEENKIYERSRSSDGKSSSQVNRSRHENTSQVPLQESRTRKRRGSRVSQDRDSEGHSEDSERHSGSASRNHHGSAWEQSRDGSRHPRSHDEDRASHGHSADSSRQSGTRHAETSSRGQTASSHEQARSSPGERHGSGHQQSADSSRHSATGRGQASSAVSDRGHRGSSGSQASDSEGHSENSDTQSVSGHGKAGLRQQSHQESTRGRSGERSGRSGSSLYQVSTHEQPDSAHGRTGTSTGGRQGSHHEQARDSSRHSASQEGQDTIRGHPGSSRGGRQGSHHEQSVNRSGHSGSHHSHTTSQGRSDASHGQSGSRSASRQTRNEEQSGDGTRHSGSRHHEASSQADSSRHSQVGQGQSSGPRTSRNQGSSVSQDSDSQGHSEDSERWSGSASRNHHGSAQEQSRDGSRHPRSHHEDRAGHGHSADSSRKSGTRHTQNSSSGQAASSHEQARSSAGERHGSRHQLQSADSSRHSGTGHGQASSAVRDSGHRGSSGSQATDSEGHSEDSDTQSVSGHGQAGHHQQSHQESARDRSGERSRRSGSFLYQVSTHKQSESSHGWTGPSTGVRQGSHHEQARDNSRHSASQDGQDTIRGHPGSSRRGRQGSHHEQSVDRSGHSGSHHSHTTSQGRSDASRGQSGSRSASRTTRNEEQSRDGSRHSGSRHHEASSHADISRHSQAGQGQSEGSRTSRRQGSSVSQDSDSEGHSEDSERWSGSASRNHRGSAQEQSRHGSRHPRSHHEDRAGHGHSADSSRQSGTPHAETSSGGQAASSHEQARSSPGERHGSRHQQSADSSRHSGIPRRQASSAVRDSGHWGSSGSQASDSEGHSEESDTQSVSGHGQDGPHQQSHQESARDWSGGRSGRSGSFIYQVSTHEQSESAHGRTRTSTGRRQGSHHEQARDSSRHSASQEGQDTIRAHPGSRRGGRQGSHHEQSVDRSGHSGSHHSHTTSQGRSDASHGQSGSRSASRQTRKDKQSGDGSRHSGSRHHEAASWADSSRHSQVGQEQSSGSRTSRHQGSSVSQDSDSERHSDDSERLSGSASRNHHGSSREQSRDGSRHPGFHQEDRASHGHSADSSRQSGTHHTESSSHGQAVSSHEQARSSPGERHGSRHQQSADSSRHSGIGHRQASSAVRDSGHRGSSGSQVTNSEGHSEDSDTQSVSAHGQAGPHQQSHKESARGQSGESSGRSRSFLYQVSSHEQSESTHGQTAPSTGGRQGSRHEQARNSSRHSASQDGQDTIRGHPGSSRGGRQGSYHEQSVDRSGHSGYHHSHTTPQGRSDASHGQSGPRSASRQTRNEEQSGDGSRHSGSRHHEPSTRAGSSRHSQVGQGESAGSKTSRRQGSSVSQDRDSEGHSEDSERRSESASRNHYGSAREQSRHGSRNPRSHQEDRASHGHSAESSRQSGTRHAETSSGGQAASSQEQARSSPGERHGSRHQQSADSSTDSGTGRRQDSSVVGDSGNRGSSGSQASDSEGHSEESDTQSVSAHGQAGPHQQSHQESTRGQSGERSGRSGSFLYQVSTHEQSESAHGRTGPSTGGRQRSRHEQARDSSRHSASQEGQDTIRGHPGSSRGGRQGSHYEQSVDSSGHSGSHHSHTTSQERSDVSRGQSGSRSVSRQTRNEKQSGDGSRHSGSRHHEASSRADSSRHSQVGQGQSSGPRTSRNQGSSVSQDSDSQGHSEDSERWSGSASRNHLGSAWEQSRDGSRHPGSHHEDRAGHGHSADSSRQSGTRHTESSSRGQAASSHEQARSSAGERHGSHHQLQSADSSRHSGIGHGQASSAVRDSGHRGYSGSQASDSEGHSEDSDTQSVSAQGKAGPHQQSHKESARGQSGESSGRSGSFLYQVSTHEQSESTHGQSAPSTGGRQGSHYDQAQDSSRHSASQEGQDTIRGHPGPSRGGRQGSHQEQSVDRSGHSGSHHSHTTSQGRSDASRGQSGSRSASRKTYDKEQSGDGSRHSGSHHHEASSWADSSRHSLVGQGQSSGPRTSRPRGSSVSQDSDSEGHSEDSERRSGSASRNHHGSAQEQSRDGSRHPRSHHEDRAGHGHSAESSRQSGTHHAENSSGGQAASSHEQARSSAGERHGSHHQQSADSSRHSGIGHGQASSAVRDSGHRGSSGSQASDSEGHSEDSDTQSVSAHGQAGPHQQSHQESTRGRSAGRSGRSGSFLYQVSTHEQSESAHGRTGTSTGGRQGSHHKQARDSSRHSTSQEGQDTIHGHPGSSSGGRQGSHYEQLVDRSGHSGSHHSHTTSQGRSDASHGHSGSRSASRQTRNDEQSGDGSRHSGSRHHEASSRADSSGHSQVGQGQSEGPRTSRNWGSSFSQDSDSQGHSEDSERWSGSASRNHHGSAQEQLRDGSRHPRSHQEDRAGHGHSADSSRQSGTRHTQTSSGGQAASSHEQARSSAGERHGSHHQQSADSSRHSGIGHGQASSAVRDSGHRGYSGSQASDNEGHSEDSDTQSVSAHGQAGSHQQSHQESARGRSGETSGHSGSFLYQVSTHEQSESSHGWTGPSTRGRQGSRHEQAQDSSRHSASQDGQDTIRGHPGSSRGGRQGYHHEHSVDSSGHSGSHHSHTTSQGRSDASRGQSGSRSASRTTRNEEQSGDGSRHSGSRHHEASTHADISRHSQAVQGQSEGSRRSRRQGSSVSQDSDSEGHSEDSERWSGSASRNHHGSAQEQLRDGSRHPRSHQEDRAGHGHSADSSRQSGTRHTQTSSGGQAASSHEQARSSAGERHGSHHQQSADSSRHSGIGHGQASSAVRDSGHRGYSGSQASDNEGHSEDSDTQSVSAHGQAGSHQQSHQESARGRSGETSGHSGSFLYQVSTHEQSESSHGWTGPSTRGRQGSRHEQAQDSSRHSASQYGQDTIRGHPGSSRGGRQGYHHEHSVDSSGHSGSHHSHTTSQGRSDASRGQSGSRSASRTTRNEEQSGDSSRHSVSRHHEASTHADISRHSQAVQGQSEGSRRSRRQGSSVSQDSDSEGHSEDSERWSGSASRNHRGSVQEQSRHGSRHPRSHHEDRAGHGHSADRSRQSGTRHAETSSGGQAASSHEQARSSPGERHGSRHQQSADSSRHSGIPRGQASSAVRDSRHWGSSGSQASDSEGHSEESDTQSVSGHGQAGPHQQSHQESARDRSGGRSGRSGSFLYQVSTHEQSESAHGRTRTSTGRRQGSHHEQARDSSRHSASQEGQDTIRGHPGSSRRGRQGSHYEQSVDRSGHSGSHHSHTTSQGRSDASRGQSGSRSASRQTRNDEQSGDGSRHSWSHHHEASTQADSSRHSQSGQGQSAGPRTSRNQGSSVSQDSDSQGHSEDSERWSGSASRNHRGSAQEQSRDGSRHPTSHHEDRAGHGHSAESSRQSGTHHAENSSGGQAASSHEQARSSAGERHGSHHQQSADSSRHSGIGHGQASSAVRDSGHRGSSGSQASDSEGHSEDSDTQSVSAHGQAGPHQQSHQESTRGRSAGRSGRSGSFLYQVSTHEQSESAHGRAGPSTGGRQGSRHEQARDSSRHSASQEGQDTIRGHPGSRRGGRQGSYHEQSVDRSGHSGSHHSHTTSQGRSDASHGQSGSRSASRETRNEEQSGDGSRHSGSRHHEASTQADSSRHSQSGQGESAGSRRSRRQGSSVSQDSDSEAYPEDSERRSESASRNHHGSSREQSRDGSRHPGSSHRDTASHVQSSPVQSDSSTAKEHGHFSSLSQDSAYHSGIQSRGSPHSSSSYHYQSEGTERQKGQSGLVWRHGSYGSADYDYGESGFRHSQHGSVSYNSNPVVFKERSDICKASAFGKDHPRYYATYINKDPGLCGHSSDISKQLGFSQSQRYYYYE
T1 sequence (P14618 2-531 limits assumed): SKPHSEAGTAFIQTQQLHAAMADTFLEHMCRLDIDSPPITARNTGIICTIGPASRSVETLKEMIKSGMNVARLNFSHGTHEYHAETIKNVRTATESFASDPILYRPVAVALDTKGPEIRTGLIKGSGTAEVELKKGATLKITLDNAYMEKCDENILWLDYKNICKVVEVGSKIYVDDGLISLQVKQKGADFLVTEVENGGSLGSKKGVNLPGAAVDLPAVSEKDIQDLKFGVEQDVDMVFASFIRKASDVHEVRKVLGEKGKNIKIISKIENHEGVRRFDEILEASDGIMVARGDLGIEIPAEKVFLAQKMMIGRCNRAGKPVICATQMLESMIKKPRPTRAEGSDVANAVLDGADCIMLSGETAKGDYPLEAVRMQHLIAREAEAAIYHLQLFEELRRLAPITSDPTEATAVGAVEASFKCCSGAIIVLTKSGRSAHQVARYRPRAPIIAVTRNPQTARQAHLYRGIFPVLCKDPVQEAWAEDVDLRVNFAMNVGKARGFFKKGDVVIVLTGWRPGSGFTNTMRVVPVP

Binder	co-IP mass spectrometry count (PKM)	co-IP mass spectrometry count (FLG)	co-IP/MS count, C-term flag (CPSF7)	co-IP/MS count, C-term flag (MMS19)	co-IP/MS count, C-term flag (CLTC)
C-terminal FLAG tagged B3GNT2 (enzyme, human, UniProt Q9NY97 1-397, looked up, FLAG-tagged ORF overexpressed in cells; pulled down from lysate with mouse anti-FLAG; also called C-FLAG B3GNT2; C-term flag; not shown: C-terminal FLAG tag) MSVGRRRIKLLGILMMANVFIYFIMEVSKSSSQEKNGKGEVIIPKEKFWKISTPPEAYWNREQEKLNRQYNPILSMLTNQTGEAGRLSNISHLNYCEPDLRVTSVVTGFNNLPDRFKDFLLYLRCRNYSLLIDQPDKCAKKPFLLLAIKSLTPHFARRQAIRESWGQESNAGNQTVVRVFLLGQTPPEDNHPDLSDMLKFESEKHQDILMWNYRDTFFNLSLKEVLFLRWVSTSCPDTEFVFKGDDDVFVNTHHILNYLNSLSKTKAKDLFIGDVIHNAGPHRDKKLKYYIPEVVYSGLYPPYAGGGGFLYSGHLALRLYHITDQVHLYPIDDVYTGMCLQKLGLVPEKHKGFRTFDIEEKNKNNICSYVDLMLVHSRKPQEMIDIWSQLQSAHLKC	3	22	–	–	–
C-terminal FLAG tagged B3GNT2 (enzyme, human, UniProt Q9NY97 1-397, looked up, FLAG-tagged ORF overexpressed in A375 cells; pulled down from the lysate with mouse anti-FLAG; also called C-FLAG B3GNT2; C-term flag; not shown: C-terminal FLAG tag) MSVGRRRIKLLGILMMANVFIYFIMEVSKSSSQEKNGKGEVIIPKEKFWKISTPPEAYWNREQEKLNRQYNPILSMLTNQTGEAGRLSNISHLNYCEPDLRVTSVVTGFNNLPDRFKDFLLYLRCRNYSLLIDQPDKCAKKPFLLLAIKSLTPHFARRQAIRESWGQESNAGNQTVVRVFLLGQTPPEDNHPDLSDMLKFESEKHQDILMWNYRDTFFNLSLKEVLFLRWVSTSCPDTEFVFKGDDDVFVNTHHILNYLNSLSKTKAKDLFIGDVIHNAGPHRDKKLKYYIPEVVYSGLYPPYAGGGGFLYSGHLALRLYHITDQVHLYPIDDVYTGMCLQKLGLVPEKHKGFRTFDIEEKNKNNICSYVDLMLVHSRKPQEMIDIWSQLQSAHLKC	–	–	9	0	7
